Data published in patent US20140194361A1, “Vault Agents for Treating Chronic Kidney Disease” (priority 2010, published 2014).

Biological target: α5β1 integrin receptor on primary mesangial cells
Assay: cell-based or functional assay

inhibition of attachment of MC to fibronectin compared to untreated MC: 1.7 fold
Substance: D-vault (CGRGDSP peptide-INT packaged in purified vault)
